As a reminder, the Kd is the constant that tells how readily two partners part at equilibrium.

In assay [1] the target is T1, human complement component C3 (human, UniProt P01024 23-667; P01024 672-1663). Nature of the assay: cell-based or functional assay.
Assay [2] addresses T2, cynomolgus monkey complement component C3 (cynomolgus monkey, UniProt P01024 24-1663 (human entry)). Description: cell-based or functional assay.
Assay [3] addresses T1, human complement component C3. Nature of the assay: binding screen of Example 5; method and unit not stated.
The target in the next assay is C3a (human, UniProt P01024 672-748). The description is as above.
Chain of C3a (P01024 672-748 limits assumed): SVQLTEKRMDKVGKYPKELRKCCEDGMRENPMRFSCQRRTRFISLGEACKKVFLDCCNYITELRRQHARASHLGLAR
The target of the next assay is C3b (human, UniProt P01024 23-667; P01024 749-1663). Described as above.
Chain of C3b (P01024 23-667 limits assumed, chain 1 of 2): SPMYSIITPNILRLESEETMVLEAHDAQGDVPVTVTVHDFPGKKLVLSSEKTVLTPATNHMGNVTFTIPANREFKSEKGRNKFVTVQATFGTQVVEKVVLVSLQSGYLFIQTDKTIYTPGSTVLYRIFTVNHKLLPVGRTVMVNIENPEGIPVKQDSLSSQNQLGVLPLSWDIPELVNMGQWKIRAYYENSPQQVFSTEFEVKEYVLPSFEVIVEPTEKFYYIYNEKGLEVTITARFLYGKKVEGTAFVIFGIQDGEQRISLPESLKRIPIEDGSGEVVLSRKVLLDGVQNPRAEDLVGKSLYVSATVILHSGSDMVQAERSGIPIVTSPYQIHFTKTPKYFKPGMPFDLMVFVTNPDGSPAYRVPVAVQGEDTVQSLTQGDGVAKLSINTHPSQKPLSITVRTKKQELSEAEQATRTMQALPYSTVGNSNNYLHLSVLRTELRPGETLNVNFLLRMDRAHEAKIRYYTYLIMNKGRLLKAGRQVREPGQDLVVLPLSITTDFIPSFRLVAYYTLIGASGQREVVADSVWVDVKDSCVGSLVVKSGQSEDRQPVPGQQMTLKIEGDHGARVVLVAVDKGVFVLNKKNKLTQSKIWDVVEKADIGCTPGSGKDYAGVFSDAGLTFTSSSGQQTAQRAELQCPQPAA
Chain of C3b (P01024 749-1663 limits assumed, chain 2 of 2): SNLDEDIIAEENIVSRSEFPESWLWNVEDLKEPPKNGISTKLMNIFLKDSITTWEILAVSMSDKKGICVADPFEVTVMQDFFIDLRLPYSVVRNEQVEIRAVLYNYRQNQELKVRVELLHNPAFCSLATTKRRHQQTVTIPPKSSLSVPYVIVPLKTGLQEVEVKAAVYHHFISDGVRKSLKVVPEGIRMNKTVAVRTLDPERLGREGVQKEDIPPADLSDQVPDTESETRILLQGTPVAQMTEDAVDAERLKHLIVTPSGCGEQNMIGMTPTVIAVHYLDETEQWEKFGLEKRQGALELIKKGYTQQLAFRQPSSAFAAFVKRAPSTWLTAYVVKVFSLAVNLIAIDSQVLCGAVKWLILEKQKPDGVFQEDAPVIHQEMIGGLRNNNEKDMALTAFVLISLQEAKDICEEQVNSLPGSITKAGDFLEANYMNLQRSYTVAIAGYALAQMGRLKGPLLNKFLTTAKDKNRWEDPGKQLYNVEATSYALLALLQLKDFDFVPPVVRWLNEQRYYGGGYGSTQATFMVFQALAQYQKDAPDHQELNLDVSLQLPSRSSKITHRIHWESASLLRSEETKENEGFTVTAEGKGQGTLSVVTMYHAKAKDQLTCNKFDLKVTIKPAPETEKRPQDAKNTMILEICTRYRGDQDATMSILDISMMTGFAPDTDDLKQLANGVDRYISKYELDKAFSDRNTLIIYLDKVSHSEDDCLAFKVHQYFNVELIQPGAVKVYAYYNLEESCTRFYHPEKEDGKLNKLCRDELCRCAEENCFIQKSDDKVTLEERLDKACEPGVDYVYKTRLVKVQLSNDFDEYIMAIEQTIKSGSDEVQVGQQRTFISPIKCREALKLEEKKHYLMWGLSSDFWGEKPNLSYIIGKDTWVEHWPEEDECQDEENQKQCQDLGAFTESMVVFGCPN
A further assay addresses T3, C3d (UniProt P01024 1002-1303, limits assumed).
T3 construct: domain: C3d
The description is as above.

The target in assay [4] is T1, human complement component C3. Nature of the assay: SPR (Biacore). On the procedure: The binding affinities of exemplary anti-C3 antibodies to human C3 and cyno C3 were measured using a Biacore system (GE Healthcare LifeSciences). Briefly, anti-Fc antibody (Sigma-Aldrich) was immobilized on all four flow cells of a CM5 chip using amine coupling reagents (GE Healthcare LifeSciences). Antibodies were captured on flow cells 2, 3, and 4 using flow cell 1 as a reference. Concentrations ranging from 0.62-40 nM of human C3 or cyno C3 were injected at a flow rate of 50 μL/min at 37° C. Kinetic data were collected over time and fit using the simultaneous global fit equation to yield affinity constants (KD values) for each antibody.
(In general: In SPR one partner is held on a chip, and binding of the other changes the refractive index at the surface.)

Assay [5] has the same target. Description: cell-based or functional assay. The source holds these as a separate data set.
Assay [6] addresses T2, cynomolgus monkey complement component …. Nature of the assay: cell-based or functional assay. This is another data set of the same source.
Assay [7] deals with T1, human complement component C3. Nature of the assay: cell-based or functional assay. This is another data set of the same source.

T3 sequence (P01024 1002-1303 limits assumed): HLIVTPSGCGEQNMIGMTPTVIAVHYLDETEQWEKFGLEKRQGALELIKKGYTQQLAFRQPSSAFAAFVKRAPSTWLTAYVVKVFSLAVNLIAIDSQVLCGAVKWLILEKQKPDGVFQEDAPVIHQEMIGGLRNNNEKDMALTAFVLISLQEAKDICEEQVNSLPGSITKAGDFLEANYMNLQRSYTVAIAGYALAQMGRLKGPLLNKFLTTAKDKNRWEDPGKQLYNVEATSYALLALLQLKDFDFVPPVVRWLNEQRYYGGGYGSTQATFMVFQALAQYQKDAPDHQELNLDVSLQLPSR
T2 sequence (P01024 other isoform, or with tags, fused parts or gaps): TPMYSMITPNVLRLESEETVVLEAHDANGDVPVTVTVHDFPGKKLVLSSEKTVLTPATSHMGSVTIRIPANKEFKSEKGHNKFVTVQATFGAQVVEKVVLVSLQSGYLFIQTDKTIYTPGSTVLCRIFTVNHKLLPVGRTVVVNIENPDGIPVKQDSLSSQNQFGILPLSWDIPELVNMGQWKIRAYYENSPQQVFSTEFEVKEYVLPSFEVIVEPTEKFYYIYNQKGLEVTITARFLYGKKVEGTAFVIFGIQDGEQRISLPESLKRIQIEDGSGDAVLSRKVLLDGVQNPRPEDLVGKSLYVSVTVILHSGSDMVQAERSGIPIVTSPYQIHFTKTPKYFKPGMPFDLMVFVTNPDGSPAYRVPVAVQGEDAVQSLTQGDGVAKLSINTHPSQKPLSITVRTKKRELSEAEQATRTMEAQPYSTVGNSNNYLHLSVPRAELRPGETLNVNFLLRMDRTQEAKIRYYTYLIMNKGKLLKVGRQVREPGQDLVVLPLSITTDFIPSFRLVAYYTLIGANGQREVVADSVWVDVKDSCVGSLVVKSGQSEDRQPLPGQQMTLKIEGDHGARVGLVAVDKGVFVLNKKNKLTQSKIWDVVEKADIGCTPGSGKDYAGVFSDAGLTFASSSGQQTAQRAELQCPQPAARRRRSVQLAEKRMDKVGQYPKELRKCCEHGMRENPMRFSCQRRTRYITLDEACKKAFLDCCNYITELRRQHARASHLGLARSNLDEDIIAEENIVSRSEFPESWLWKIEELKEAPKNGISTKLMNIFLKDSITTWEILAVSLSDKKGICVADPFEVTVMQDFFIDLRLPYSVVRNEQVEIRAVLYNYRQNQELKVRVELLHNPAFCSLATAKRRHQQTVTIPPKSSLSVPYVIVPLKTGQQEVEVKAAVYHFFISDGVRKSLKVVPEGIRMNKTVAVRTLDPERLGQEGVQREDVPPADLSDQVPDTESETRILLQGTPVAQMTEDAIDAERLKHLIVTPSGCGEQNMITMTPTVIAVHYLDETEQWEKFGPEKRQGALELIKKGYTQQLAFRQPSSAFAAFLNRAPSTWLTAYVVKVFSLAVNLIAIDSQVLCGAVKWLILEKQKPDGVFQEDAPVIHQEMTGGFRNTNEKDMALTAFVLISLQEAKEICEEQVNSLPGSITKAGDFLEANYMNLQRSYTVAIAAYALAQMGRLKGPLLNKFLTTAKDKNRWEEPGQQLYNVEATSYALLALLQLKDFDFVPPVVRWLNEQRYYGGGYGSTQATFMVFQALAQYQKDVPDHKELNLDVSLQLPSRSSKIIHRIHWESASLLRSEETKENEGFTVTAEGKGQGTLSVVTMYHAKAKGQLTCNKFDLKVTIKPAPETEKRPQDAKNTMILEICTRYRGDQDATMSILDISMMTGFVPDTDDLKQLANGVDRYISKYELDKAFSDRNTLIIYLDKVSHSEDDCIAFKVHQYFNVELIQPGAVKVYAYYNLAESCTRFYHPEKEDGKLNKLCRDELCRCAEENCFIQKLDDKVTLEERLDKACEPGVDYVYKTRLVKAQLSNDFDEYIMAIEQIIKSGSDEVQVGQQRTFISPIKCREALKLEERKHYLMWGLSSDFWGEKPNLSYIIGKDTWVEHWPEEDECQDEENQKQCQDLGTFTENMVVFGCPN
T1 sequence (P01024 23-667, chain 1 of 2): as the sequence (P01024 23-667 limits assumed, chain 1 of 2) above
T1 sequence (P01024 672-1663, chain 2 of 2): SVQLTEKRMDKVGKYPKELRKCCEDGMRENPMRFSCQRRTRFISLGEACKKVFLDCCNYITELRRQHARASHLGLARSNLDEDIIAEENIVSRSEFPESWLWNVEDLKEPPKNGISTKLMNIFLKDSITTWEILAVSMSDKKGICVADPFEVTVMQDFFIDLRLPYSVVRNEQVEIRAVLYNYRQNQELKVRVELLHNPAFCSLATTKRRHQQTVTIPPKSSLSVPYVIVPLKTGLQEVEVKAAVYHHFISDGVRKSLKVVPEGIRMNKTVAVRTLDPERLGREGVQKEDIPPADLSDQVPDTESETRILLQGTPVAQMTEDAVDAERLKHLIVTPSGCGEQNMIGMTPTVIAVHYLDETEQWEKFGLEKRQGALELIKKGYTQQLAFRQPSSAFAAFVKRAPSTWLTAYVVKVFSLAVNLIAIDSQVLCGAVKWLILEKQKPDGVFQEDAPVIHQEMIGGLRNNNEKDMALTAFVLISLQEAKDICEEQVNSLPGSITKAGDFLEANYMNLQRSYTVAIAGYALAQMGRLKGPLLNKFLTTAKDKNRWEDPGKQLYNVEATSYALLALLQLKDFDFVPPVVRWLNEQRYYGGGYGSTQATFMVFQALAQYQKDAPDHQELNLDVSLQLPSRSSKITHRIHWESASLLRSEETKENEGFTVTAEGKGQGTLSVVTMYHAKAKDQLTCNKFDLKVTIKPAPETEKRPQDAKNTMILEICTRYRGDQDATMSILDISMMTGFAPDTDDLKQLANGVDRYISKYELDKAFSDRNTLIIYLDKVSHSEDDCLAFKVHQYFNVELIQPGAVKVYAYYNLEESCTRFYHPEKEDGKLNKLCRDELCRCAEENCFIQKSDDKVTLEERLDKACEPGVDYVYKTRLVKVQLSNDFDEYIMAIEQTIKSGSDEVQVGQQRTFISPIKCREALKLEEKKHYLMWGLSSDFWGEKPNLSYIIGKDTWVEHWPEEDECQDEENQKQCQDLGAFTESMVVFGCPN

B1: antibody 63A3 (antibody, V domains shown)
VH: DVQLQESGPGLVKPSQSLSLTCSVTGYSITSGYYWNWIRQFPGNKLEWMGYIRYDGSNNYNPSLKNRISITRDTSKNQVFLKLNSVTPEDTATYYCARHYGYDGGAFDFWGQGTTLTVSS
VL: DIQMTQSPASLSASVGETVTITCRTSENIYNYLVWYQQKQGKSPQLLVYNAKTLEEGVPSRFSGSGSGTQFSLKVNSLQPEDFGSYYCQHHYGTPFTFGSGTKLEIK
notes: Mouse hybridoma antibody
On to B1, for which the “Hemolytic Assay IC50, Human AP” value in assay [1] was 6.5 nM. Besides, the “Hemolytic Assay IC50, Human CP” value in [1] is 4.1 nM. Moreover, the “Hemolytic Assay IC50, Cyno AP” value in assay [2] was 3.4 nM. Also, the “Hemolytic Assay IC50, Cyno CP” value in assay [2] worked out at 1.6 nM. For the same molecule, the “binding relative to negative control mIgG2” value in [3] was 0.95; in the assay with C3a, -0.02; with C3b, 0.83; with C3d, 0.01.

B2: antibody Hz38G10(G56A) (antibody, human IgG1, kappa, V domains shown)
VH: QVQLVQSGAEVKKPGASVKVSCKASGYTFTDFYMDWVRQAPGQRLEWMGYIYPHNAGTTYNQQFTGRVTITVDKSASTAYMELSSLRSEDTAVYYCARRGGFDFDYWGQGTLVTVSS
VL: DIQMTQSPSSLSASVGDRVTITCKASENVDTYVSWYQQKPGKAPKLLIYGASNRYTGVPSRFSGSGSGTDFTFTISSLQPEDIATYHCGQSHSYPLTFGQGTKLEIKR
notes: the light chain is the Hz38G10 light chain
As to B2, the Kd in [4] was determined as 0.27 nM. Further, in [5], the “Alternative Pathway IC50 (hemolysis), Human C3” value was 3.9 nM and the “Classical Pathway IC50 (hemolysis), Human C3” value came to 5.4 nM. For the same molecule, in assay [6], the “Alternative Pathway IC50 (hemolysis), Cyno C3” value was found to be 4.8 nM and the “Classical Pathway IC50 (hemolysis), Cyno C3” value worked out at 0.6 nM.

B3: Fab version of Hz38G10 (Fab, V domains shown)
VH: QVQLVQSGAEVKKPGASVKVSCKASGYTFTDFYMDWVRQAPGQRLEWMGYIYPHNGGTTYNQQFTGRVTITVDKSASTAYMELSSLRSEDTAVYYCARRGGFDFDYWGQGTLVTVSS
VL: DIQMTQSPSSLSASVGDRVTITCKASENVDTYVSWYQQKPGKAPKLLIYGASNRYTGVPSRFSGSGSGTDFTFTISSLQPEDIATYHCGQSHSYPLTFGQGTKLEIK
In the case of B3, in [7], the “AP human C3 IC50 (hemolysis)” value was 16 nM and the “CP human C3 IC50 (hemolysis)” value was determined as 17.8 nM.

B4: antibody Hz38G10(N55D) (antibody, V domains shown)
VH: QVQLVQSGAEVKKPGASVKVSCKASGYTFTDFYMDWVRQAPGQRLEWMGYIYPHDGGTTYNQQFTGRVTITVDKSASTAYMELSSLRSEDTAVYYCARRGGFDFDYWGQGTLVTVSS
VL: DIQMTQSPSSLSASVGDRVTITCKASENVDTYVSWYQQKPGKAPKLLIYGASNRYTGVPSRFSGSGSGTDFTFTISSLQPEDIATYHCGQSHSYPLTFGQGTKLEIK
notes: Variant of Hz38G10 with N55D in the heavy chain CDR2, mimicking a fully deamidated molecule
B4: in assay [4], the binding result is given as “binds”.

B5: antibody Hz38G10(N55E) (antibody, V domains shown)
VH: QVQLVQSGAEVKKPGASVKVSCKASGYTFTDFYMDWVRQAPGQRLEWMGYIYPHEGGTTYNQQFTGRVTITVDKSASTAYMELSSLRSEDTAVYYCARRGGFDFDYWGQGTLVTVSS
VL: DIQMTQSPSSLSASVGDRVTITCKASENVDTYVSWYQQKPGKAPKLLIYGASNRYTGVPSRFSGSGSGTDFTFTISSLQPEDIATYHCGQSHSYPLTFGQGTKLEIK
notes: Variant of Hz38G10
In turn, B5 showed a Kd in [4] of 6.2 nM.

B6: antibody Hz38G10(G56T) (antibody, V domains shown)
VH: QVQLVQSGAEVKKPGASVKVSCKASGYTFTDFYMDWVRQAPGQRLEWMGYIYPHNTGTTYNQQFTGRVTITVDKSASTAYMELSSLRSEDTAVYYCARRGGFDFDYWGQGTLVTVSS
VL: DIQMTQSPSSLSASVGDRVTITCKASENVDTYVSWYQQKPGKAPKLLIYGASNRYTGVPSRFSGSGSGTDFTFTISSLQPEDIATYHCGQSHSYPLTFGQGTKLEIK
notes: Variant of Hz38G10
The molecule B6 came in with a Kd in assay [4] of 0.23 nM.

B7: antibody Hz38G10(N55Q) (antibody, V domains shown)
VH: QVQLVQSGAEVKKPGASVKVSCKASGYTFTDFYMDWVRQAPGQRLEWMGYIYPHQGGTTYNQQFTGRVTITVDKSASTAYMELSSLRSEDTAVYYCARRGGFDFDYWGQGTLVTVSS
VL: DIQMTQSPSSLSASVGDRVTITCKASENVDTYVSWYQQKPGKAPKLLIYGASNRYTGVPSRFSGSGSGTDFTFTISSLQPEDIATYHCGQSHSYPLTFGQGTKLEIK
notes: Variant of Hz38G10
As for B7, in [4], binding was put at a Kd of 0.82 nM.

B8: antibody 28C3 (antibody, V domains shown)
VH: QVQLQQSGPELVKPGASVKISCKASGYAFNSCWMNWVKQRPGKGLEWIGRIYPGDGDTNYNGKFKGKATLTADKSSTTAYMQLSSLTSEDSAVYFCAREGRNYGYEDYWGQGTTLTVSS
VL: DIVLTQSPASLAVSLGQRATISCKASQSVDYDGDSYMNWYQQKPGQPPKLLIYAASDLESGIPARFSGSGSGTDFTLNIHPVEEEDAATYYCQQANEDPRTFGGGTKLEIK
notes: Mouse hybridoma antibody
With B8, the “Hemolytic Assay IC50, Human AP” value in assay [1] is 8 nM. Further, the “Hemolytic Assay IC50, Human CP” value in assay [1] came to 6.5 nM. In addition, in [2], the “Hemolytic Assay IC50, Cyno AP” value amounted to 7.8 nM. Also, the “Hemolytic Assay IC50, Cyno CP” value in assay [2] amounted to 3.4 nM. Moreover, the “binding relative to negative control mIgG2” value turned out to be 0.66 in assay [3], 0.11 with C3a, 0.09 with C3b and 0.01 in the assay with C3d.

B9: antibody 27A8 (antibody, V domains shown)
VH: QVQLLQPGAEFVKPGASVKLSCKASGYTFTDYWINWVKQRPGQGLEWIGNIYPGSTSANYNEKFKSKATLTIDTSSITAYMQLSSLTSDDSAVYYCARYGYDSWFAYWGQGTLVTVSA
VL: DVVLTQTPLSLPVNIGDQASISCKSTKSLLNSDGFTYLDWFLQKPGQSPHLLIYLVSNRFSGIPDRFSGSGSETDFTLKISRVEAEDLGVYYCFQSNYLPLTFGSGTKLEIK
B9: in assay [1], the “Hemolytic Assay IC50, Human AP” value came to 8.5 nM and the “Hemolytic Assay IC50, Human CP” value was determined as 7.6 nM. The “Hemolytic Assay IC50, Cyno AP” value in assay [2] came out at 9.6 nM.

B10: antibody 3G8 (antibody, V domains shown)
VH: EIQLQQSGAELVKPGASVKISCMASGYSFTGYNMNWVKQSHGKGLEWIGNINPYYDSTSYNQKFKGKATLTVDKSSSTAYMQLNSLTSEDSAVYYCARENYDFVGFAYWGQGTLVTVSA
VL: QIVLSQSPAILSASPGEKVTMTCRASSSVSYMHWFQQKPGSSPKPWIYVTSNLASGVPPRFSGSGSGTSYSLTISRVEAEDAATYYCQQWSTNPLTFGAGTKLELK
notes: Mouse hybridoma antibody
B10: in [1], the “Hemolytic Assay IC50, Human AP” value turned out to be 6.8 nM. Further, in assay [1], the “Hemolytic Assay IC50, Human CP” value is 10.4 nM. Also, the “Hemolytic Assay IC50, Cyno AP” value in [2] amounted to 20.9 nM. Further, the “Hemolytic Assay IC50, Cyno CP” value in assay [2] stood at 102 nM. In addition, the “binding relative to negative control mIgG2” value in assay [3] is 0.37; in the assay with C3a, -0.01; in the assay with C3b, 0.33; in the assay with C3d, 0.

B11: antibody 62F2 (antibody, V domains shown)
VH: DVQLQESGPDLVKPSQSLSLTCTVTGYSITSGYSLHWIRQFPGNKLEWMGYIHYSGSTNYNPSLKSRISITRDTSKNQFFLKLNSVTSEDTATYHCARAWDYLDYWGQGTTLTVSS
VL: DIQMTQSPASLSASVGETVTITCRASENIYSQLAWYQQKQGKSPQLLVYDAKTLAEGVPSRFSGSGSDTQFSLKIISLQPEDFGRYYCHHHFGILYTFGGGTKLEMK
notes: Mouse hybridoma antibody
With B11, the “Hemolytic Assay IC50, Human AP” value in assay [1] worked out at 5.7 nM. Also, the “Hemolytic Assay IC50, Human CP” value in assay [1] came out at 5 nM. Also, in assay [2], the “Hemolytic Assay IC50, Cyno AP” value was determined as 8.7 nM. In [2], the “Hemolytic Assay IC50, Cyno CP” value was 5.3 nM. The “binding relative to negative control mIgG2” value is 0.7 in assay [3], -0.04 with C3a, 0.61 in the assay with C3b and 0.01 in the assay with C3d.
